Test results as given in patent publication US20220119825A1, “SCALABLE PEPTIDE-GPCR INT[…] SYSTEMS” (THE TRUSTEES OF COLUMBIA UNIVERSITY IN THE CITY OF NEW YORK, priority 2019, published 2022).

How the values were obtained:
Experiment in all cases: cell-based or functional assay
[1] = biological target: T1, Cp.Ste2, Ste2-like mating GPCR of Candida parapsilosis (Candida parapsilosis)
T1 chain: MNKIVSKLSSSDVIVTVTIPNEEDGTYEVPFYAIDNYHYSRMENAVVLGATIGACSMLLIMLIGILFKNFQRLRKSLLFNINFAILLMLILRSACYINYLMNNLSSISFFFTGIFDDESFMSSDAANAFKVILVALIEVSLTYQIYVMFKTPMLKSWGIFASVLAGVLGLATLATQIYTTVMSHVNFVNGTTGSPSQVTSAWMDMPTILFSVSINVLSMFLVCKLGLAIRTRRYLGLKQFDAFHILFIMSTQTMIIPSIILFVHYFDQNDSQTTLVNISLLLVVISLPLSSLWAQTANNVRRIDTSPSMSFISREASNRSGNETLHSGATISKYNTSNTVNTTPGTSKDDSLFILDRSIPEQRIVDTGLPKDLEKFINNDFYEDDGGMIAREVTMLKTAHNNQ

[2] = biological target: T2, Zb.Ste2, Ste2-like mating GPCR of Zygosaccharomyces bailii (Zygosaccharomyces bailii)
T2 chain: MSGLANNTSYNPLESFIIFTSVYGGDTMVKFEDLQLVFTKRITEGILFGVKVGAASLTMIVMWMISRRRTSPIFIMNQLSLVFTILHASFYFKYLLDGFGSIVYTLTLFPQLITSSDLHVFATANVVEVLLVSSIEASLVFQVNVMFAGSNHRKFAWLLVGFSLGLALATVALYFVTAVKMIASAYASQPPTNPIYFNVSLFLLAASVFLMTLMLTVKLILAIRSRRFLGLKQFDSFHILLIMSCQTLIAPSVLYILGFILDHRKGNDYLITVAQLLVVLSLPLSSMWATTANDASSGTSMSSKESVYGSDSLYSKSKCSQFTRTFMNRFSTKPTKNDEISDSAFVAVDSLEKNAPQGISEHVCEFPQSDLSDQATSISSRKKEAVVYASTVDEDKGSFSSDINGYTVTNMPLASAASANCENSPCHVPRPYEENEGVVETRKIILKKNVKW

[3] = biological target: T3, Cl.Ste2, Ste2-like mating GPCR of Candida (Clavispora) lusitaniae (Candida (Clavispora) lusitaniae)
T3 chain: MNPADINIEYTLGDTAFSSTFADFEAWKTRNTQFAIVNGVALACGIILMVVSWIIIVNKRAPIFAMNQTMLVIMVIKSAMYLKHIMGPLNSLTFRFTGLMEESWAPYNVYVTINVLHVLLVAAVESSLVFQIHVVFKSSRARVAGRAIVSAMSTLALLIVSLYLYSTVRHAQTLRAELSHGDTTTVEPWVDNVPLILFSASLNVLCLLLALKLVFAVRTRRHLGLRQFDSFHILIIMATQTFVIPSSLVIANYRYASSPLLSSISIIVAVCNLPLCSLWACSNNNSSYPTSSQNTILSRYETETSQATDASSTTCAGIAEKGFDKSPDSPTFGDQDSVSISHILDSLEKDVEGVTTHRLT

[4] = biological target: T4, Vp2.Ste2, Ste2-like mating GPCR of Vanderwaltozyma polyspora2 (Vanderwaltozyma polyspora)
T4 chain: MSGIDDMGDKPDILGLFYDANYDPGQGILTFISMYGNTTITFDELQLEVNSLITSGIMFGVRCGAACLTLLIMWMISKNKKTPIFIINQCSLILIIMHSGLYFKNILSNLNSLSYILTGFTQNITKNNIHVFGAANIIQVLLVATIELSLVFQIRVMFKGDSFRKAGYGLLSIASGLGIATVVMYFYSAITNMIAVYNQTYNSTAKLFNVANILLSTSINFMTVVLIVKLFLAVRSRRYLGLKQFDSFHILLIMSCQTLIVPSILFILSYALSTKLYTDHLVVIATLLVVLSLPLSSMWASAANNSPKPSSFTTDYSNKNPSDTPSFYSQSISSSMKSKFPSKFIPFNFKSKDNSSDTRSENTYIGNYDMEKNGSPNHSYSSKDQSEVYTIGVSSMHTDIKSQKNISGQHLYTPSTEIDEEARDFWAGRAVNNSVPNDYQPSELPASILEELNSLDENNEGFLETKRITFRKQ

[5] = biological target: T5, Cn.Ste2, Ste2-like mating GPCR of Candida tenuis (Candida tenuis)
T5 chain: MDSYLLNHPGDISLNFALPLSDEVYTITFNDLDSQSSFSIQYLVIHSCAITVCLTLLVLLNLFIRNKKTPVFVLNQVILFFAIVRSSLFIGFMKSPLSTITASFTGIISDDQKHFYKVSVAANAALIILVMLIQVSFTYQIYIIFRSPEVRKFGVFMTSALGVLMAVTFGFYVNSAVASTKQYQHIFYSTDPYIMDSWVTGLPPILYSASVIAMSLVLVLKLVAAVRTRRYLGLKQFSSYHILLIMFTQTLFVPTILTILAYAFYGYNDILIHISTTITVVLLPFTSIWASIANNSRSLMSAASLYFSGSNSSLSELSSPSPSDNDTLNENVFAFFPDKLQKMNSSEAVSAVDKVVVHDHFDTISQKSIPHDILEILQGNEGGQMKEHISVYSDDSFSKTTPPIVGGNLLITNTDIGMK

B1: Cp peptide ligand #1 KPHWTTYGYYEPQ (peptide)
peptide: KPHWTTYGYYEPQ
Bttm (FUS1p-RFP reporter) [1]: 36.2 fluorescence/A600 (not printed) | EC50 (FUS1p-RFP reporter) [1]: -8.5 log10 M (not printed) | Fold Change (FUS1p-RFP reporter) [1]: 7 fold | Span (FUS1p-RFP reporter) [1]: 218 fluorescence/A600 (not printed) | Top (FUS1p-RFP reporter) [1]: 254 fluorescence/A600 (not printed)

B2: Zb peptide ligand #1 HLVRLSPGAAMF (peptide)
peptide: HLVRLSPGAAMF
Bttm (FUS1p-RFP reporter) [2]: 39.1 fluorescence/A600 (not printed) | EC50 (FUS1p-RFP reporter) [2]: -5.8 log10 M (not printed) | Fold Change (FUS1p-RFP reporter) [2]: 7.5 fold | Span (FUS1p-RFP reporter) [2]: 253 fluorescence/A600 (not printed) | Top (FUS1p-RFP reporter) [2]: 292 fluorescence/A600 (not printed)

B3: Cl peptide ligand #1 KWKWIKFRNTDVIG (peptide)
peptide: KWKWIKFRNTDVIG
Bttm (FUS1p-RFP reporter) [3]: 39.8 fluorescence/A600 (not printed) | EC50 (FUS1p-RFP reporter) [3]: -7.5 log10 M (not printed) | Fold Change (FUS1p-RFP reporter) [3]: 1.4 fold | Span (FUS1p-RFP reporter) [3]: 186 fluorescence/A600 (not printed) | Top (FUS1p-RFP reporter) [3]: 226 fluorescence/A600 (not printed)

B4: Vp2 peptide ligand #1 WHWLRLRYGEPIY (peptide)
peptide: WHWLRLRYGEPIY
Bttm (FUS1p-RFP reporter) [4]: 28 fluorescence/A600 (not printed) | EC50 (FUS1p-RFP reporter) [4]: -7.7 log10 M (not printed) | Fold Change (FUS1p-RFP reporter) [4]: 7.7 fold | Span (FUS1p-RFP reporter) [4]: 187 fluorescence/A600 (not printed) | Top (FUS1p-RFP reporter) [4]: 215 fluorescence/A600 (not printed)

B5: Cn peptide ligand #1 FSWNYRLKWQPIS (peptide)
peptide: FSWNYRLKWQPIS
Bttm (FUS1p-RFP reporter) [5]: 29.7 fluorescence/A600 (not printed) | EC50 (FUS1p-RFP reporter) [5]: -7.4 log10 M (not printed) | Fold Change (FUS1p-RFP reporter) [5]: 5.1 fold | Span (FUS1p-RFP reporter) [5]: 122 fluorescence/A600 (not printed) | Top (FUS1p-RFP reporter) [5]: 152 fluorescence/A600 (not printed)
